From publication PMC5841803, “Retinal guanylyl cyclase activating protein 1 forms a functional dimer” (PLoS ONE, 2018)
Substitutions are numbered along the chain they refer to. Names and notes keep the numbering of the source. Like-named read-outs stand apart in the source and are kept apart here. Blank lines part the entries; values can stand above or below the binder they belong to.

Tests used:
[1] = target: T1, human retinal guanylyl cyclase RetGC1 (human, UniProt Q02846 52-1103)
T1 sequence (looked up): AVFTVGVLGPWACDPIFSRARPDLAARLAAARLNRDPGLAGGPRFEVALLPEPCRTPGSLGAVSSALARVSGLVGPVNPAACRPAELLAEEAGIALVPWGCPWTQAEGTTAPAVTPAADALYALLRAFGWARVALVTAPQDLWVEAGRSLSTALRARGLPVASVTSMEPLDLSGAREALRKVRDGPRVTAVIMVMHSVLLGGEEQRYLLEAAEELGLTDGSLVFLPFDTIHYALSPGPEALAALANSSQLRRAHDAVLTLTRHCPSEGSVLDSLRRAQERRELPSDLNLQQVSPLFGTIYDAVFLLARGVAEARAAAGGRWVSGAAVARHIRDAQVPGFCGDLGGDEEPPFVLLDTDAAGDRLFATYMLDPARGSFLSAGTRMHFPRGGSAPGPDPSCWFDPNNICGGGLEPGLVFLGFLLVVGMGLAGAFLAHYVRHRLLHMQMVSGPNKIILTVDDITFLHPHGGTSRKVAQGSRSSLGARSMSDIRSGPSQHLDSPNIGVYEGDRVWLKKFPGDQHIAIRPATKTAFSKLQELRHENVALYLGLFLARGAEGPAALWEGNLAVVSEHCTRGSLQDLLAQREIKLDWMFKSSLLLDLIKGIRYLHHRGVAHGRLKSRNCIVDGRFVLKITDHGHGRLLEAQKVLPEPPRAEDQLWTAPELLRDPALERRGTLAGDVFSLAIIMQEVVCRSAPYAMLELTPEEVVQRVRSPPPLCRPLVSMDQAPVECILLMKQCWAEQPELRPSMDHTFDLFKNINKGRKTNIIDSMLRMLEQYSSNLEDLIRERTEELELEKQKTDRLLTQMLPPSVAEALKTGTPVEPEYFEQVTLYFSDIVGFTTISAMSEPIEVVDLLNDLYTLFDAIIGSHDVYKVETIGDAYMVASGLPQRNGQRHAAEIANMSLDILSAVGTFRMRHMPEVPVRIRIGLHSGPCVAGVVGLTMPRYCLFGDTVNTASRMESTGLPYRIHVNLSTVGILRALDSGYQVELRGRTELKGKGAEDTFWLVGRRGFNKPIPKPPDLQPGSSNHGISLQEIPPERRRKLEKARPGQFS

[2] = target: the molecule itself; test: EPR-DEER; spin-labelled (MTSSL) single-Cys GCAP1 at ~300 uM, 10 mM Tris-d11 pH 7.4, 2 mM MgCl2, D2O, 25% glycerol-d8, frozen, 50 or 80 K; Ca2+-free/Mg2+-bound state, similar data in the Ca2+-bound state; intermolecular spin-label distances
[3] = target: the molecule itself; test: NMR pulsed-field gradient diffusion; translational diffusion coefficient of spin-labelled GCAP1^CL(T29C); molar mass from D
[4] = target: the molecule itself; test: SEC; analytical SEC, Superdex 200 HR 10/30, 100 uL of 200 uM protein, 10 mM Tris pH 7.4, 100 mM NaCl, 1 mM DTT, 4 C, with saturating Mg2+ (2 mM) or Ca2+ (2 mM); molar mass from elution time against protein standards
[5] = target: T1, human retinal guanylyl cyclase RetGC1; test: cell-based or functional assay

EC50 of activation of RetGC1 (HEK293 membranes) in the absence of Ca2+ (EGTA), guanylyl cyclase assay [1]: 14 µM
B1: Cys-less mutant of GCAP1 (GCAP1^CL) (natural protein)
chain: MGNIMSGKSVEELSSTETHQWYKKFMTETPSGQLTLYEFRQFFGLKNLSPWASQYVEQMFETFDFNKDGYIDFMEYVAALSLVLKGKVEQKLRWYFKLYDVDGNGTIDRDELLTIIRAIRAINPTSDSTMTAEEFTDTVFSKIDVNGDGELSLEEFMEGVQKDQMLLDTLTRSLDLTRIVRRLQNGEQDEEGASGRETEAAEADG
modifications: N-terminal myristoylation

B2: GCAP1^CL(E133C), nitroxide spin-labelled (natural protein, bovine, UniProt P46065 1-205, looked up)
chain: B1 chain with E133C
modifications: N-terminal myristoylation; MTSSL nitroxide spin-label on Cys133
notes: GCAP1, bovine, D6S background, Cys-less (all four native Cys C18, C29, C106, C125 to Thr), with a single Cys at 133; source: E. coli BL21(DE3), co-expressed with yeast N-myristoyl CoA transferase, purified, labelled with MTSSL
binding result [2]: binds

B3: GCAP1^CL(E154C), nitroxide spin-labelled (natural protein, bovine, UniProt P46065 1-205, looked up)
chain: B1 chain with E154C
modifications: N-terminal myristoylation; MTSSL nitroxide spin-label on Cys154
notes: GCAP1, bovine, D6S background, Cys-less (all four native Cys C18, C29, C106, C125 to Thr), with a single Cys at 154; source: E. coli BL21(DE3), co-expressed with yeast N-myristoyl CoA transferase, purified, labelled with MTSSL
binding result [2]: binds

B4: GCAP1^CL(E57C), nitroxide spin-labelled (natural protein, bovine, UniProt P46065 1-205, looked up)
chain: B1 chain with E57C
modifications: N-terminal myristoylation; MTSSL nitroxide spin-label on Cys57
notes: GCAP1, bovine, D6S background, Cys-less (all four native Cys C18, C29, C106, C125 to Thr), with a single Cys at 57; source: E. coli BL21(DE3), co-expressed with yeast N-myristoyl CoA transferase, purified, labelled with MTSSL
binding result [2]: binds

B5: GCAP1^CL(T29C), spin-labelled (natural protein, bovine, UniProt P46065 1-205, looked up)
chain: B1 chain with T29C
modifications: N-terminal myristoylation; MTSSL spin-label on Cys29 (N-O group reduced for the HSQC spectrum)
notes: GCAP1, bovine, D6S background, Cys-less parent (C18, C29, C106, C125 to Thr) in which T29C restores the natural Cys29; also called spin-labeled GCAP1^CL(T29C); source: E. coli BL21(DE3), co-expressed with yeast N-myristoyl CoA transferase, purified, labelled with MTSSL
stoichiometry N [3]: 4

EC50 of activation of RetGC1 (HEK293 membranes) in the absence of Ca2+ (EGTA), guanylyl cyclase assay [5]: < 2 µM
B6: wild type GCAP1 (recombinant bovine myristoylated guanylyl cyclase activating protein 1, D6S) (natural protein, UniProt P46065 1-205, looked up)
chain: B1 chain with T18C, T29C, T106C, T125C
modifications: N-terminal myristoylation
notes: 15N-labelled for NMR; also called GCAP1 D6S mutant; source: E. coli BL21(DE3), co-expressed with yeast N-myristoyl CoA transferase, purified
stoichiometry N [4]: 2
